In patent publication US20210061911A1:

Experiments:
[1] = target: Cynomolgus CD3ε/δ (cynomolgus monkey) (UniProt Q95LI5); assay: kinetic binding analysis, method not given
Human CD3ε/δ (human) = Human CD3ε/δ (human) (UniProt P07766); assay: kinetic binding analysis, method not given
Human CD3ε/δ (human), sequence (P07766 23-126, stated change not applied, chain 1 of 2): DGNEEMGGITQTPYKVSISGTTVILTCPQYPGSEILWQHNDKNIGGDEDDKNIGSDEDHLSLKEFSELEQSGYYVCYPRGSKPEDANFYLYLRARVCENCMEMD
Human CD3ε/δ (human), sequence (P04234 22-105, stated change not applied, chain 2 of 2, further chain): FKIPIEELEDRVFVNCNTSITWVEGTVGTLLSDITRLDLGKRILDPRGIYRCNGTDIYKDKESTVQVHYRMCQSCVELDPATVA

Cynomolgus CD3ε/δ (cynomolgus monkey), sequence (Q95LI5 22-117, stated change not applied, chain 1 of 2): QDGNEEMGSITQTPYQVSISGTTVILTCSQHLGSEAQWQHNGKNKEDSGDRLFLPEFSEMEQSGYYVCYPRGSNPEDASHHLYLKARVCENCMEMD
Cynomolgus CD3ε/δ (cynomolgus monkey), sequence (Q95LI8 22-105, stated change not applied, chain 2 of 2, further chain): as the sequence (P04234 22-105, stated change not applied, chain 2 of 2, further chain) above, with I5V, N15K, I20V, S32T, D33N, I34N, T64A, S74N, V83L counted along it

B1: DART-A, sequence-optimized CD123×CD3 bi-specific monovalent diabody (bispecific antibody)
chain 1: QAVVTQEPSLTVSPGGTVTLTCRSSTGAVTTSNYANWVQQKPGQAPRGLIGGTNKRAPWTPARFSGSLLGGKAALTITGAQAEDEADYYCALWYSNLWVFGGGTKLTVLGGGGSGGGGEVQLVQSGAELKKPGASVKVSCKASGYTFTDYYMKWVRQAPGQGLEWIGDIIPSNGATFYNQKFKGRVTITVDKSTSTAYMELSSLRSEDTAVYYCARSHLLRASWFAYWGQGTLVTVSSGGCGGGEVAALEKEVAALEKEVAALEKEVAALEK
chain 2: DFVMTQSPDSLAVSLGERVTMSCKSSQSLLNSGNQKNYLTWYQQKPGQPPKLLIYWASTRESGVPDRFSGSGSGTDFTLTISSLQAEDVAVYYCQNDYSYPYTFGQGTKLEIKGGGSGGGGEVQLVESGGGLVQPGGSLRLSCAASGFTFSTYAMNWVRQAPGKGLEWVGRIRSKYNNYATYYADSVKDRFTISRDDSKNSLYLQMNSLKTEDTAVYYCVRHGNFGNSYVSWFAYWGQGTLVTVSSGGCGGGKVAALKEKVAALKEKVAALKEKVAALKE
Kd [1]: 9.2 nM | koff [1]: 0.005 s⁻¹ | kon [1]: 550000 M⁻¹ s⁻¹ | Kd (Human CD3ε/δ (human)): 9 nM | koff (Human CD3ε/δ (human)): 0.005 s⁻¹ | kon (Human CD3ε/δ (human)): 570000 M⁻¹ s⁻¹
